# Results taken from IntAct's records for PubMed 22246185.
# B1: Apoptotic protease-activating factor 1 (Homo sapiens), O14727 (parent)
# chain: MDAKARNCLLQHREALEKDIKTSYIMDHMISDGFLTISEEEKVRNEPTQQQRAAMLIKMILKKDNDSYVSFYNALLHEGYKDLAALLHDGIPVVSSSSGKDSVSGITSYVRTVLCEGGVPQRPVVFVTRKKLVNAIQQKLSKLKGEPGWVTIHGMAGCGKSVLAAEAVRDHSLLEGCFPGGVHWVSVGKQDKSGLLMKLQNLCTRLDQDESFSQRLPLNIEEAKDRLRILMLRKHPRSLLILDDVWDSWVLKAFDSQCQILLTTRDKSVTDSVMGPKYVVPVESSLGKEKGLEILSLFVNMKKADLPEQAHSIIKECKGSPLVVSLIGALLRDFPNRWEYYLKQLQNKQFKRIRKSSSYDYEALDEAMSISVEMLREDIKDYYTDLSILQKDVKVPTKVLCILWDMETEEVEDILQEFVNKSLLFCDRNGKSFRYYLHDLQVDFLTEKNCSQLQDLHKKIITQFQRYHQPHTLSPDQEDCMYWYNFLAYHMASAKMHKELCALMFSLDWIKAKTELVGPAHLIHEFVEYRHILDEKDCAVSENFQEFLSLNGHLLGRQPFPNIVQLGLCEPETSEVYQQAKLQAKQEVDNGMLYLEWINKKNITNLSRLVVRPHTDAVYHACFSEDGQRIASCGADKTLQVFKAETGEKLLEIKAHEDEVLCCAFSTDDRFIATCSVDKKVKIWNSMTGELVHTYDEHSEQVNCCHFTNSSHHLLLATGSSDCFLKLWDLNQKECRNTMFGHTNSVNHCRFSPDDKLLASCSADGTLKLWDATSANERKSINVKQFFLNLEDPQEDMEVIVKCCSWSADGARIMVAAKNKIFLFDIHTSGLLGEIHTGHHSTIQYCDFSPQNHLAVVALSQYCVELWNTDSRSKVADCRGHLSWVHGVMFSPDGSSFLTSSDDQTIRLWETKKVCKNSAVMLKQEVDVVFQENEVMVLAVDHIRRLQLINGRTGQIDYLTEAQVSCCCLSPHLQYIAFGDENGAIEILELVNNRIFQSRFQHKKTVWHIQFTADEKTLISSSDDAEIQVWNWQLDKCIFLRGHQETVKDFRLLKNSRLLSWSFDGTVKVWNIITGNKEKDFVCHQGTVLSCDISHDATKFSSTSADKTAKIWSFDLLLPLHELRGHNGCVRCSAFSVDSTLLATGDDNGEIRIWNVSNGELLHLCAPLSEEGAATHGGWVTDLCFSPDGKMLISAGGYIKWWNVVTGESSQTFYTNGTNLKKIHVSPDFKTYVTVDNLGILYILQTLE
# Variants of: B1
# Settings: with 1433e_human YWHAE
row,Variant,effect of a mutation on the interaction
1,S268A,decreasing interaction

# Variants of: B1
# Settings: with 1433e_human YWHAE
# Remark: another data set of the same source
row,Variant,effect of a mutation on the interaction
1,S357A,decreasing interaction
